Assay results reported in the supplement of paper PMC10567573.

B1: CDC14A (parent)
chain: GPHPKSKIENGYPLHAPEAYFPYF
B2: PBXIP1 (parent)
chain: LPVETLGPASRMDPESERALQAPH

Variants of: B1
Assay: protein stability index of a GFP-peptide fusion (GPS, HEK-293T) (PSI 1-6); higher = more stable
Conditions: c terminus: a fixed tail appended
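Note: lentivirally expressed fusions sorted by FACS into six bins by GFP to DsRed ratio, PSI derived from sequencing read proportions per bin multiplied by bin number.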

Row | Variant | protein stability index
1 | GPHPKSKIENGYPLHAPEAYFHYF [P22H] | 1.6
2 | GPHPKSKIENGYPLHAPEAYFCYF [P22C] | 2.9
3 | GPHPKSKIENGYPLHAPEAYFGYF [P22G] | 1.8
4 | GPHPKSKIENGYPLHAPEAYFTYF [P22T] | 1.64
5 | GPHPKSKIENGYPLHAPEAYFNYF [P22N] | 1.99
6 | GPHPKSKIENGYPLHAPEAYFEYF [P22E] | 2.22
7 | GPHPKSKIENGYPLHAPEAYFMYF [P22M] | 2.76
8 | GPHPKSKIENGYPLHAPEAYFLYF [P22L] | 2.38
9 | GPHPKSKIENGYPLHAPEAYFAYF [P22A] | 1.61
10 | GPHPKSKIENGYPLHAPEAYFRYF [P22R] | 2.5
11 | GPHPKSKIENGYPLHAPEAYFIYF [P22I] | 3.32
12 | GPHPKSKIENGYPLHAPEAYFKYF [P22K] | 2.67
13 | GPHPKSKIENGYPLHAPEAYFDYF [P22D] | 2.73
14 | GPHPKSKIENGYPLHAPEAYFSYF [P22S] | 1.98
15 | GPHPKSKIENGYPLHAPEAYFVYF [P22V] | 2.19
16 | GPHPKSKIENGYPLHAPEAYFWYF [P22W] | 2.54
17 | GPHPKSKIENGYPLHAPEAYFQYF [P22Q] | 2.47
18 | GPHPKSKIENGYPLHAPEAYFPDF [Y23D] | 3.92

Row | Variant | protein stability index
19 | GPHPKSKIENGYPLHAPEAYFPVF [Y23V] | 2.07
20 | GPHPKSKIENGYPLHAPEAYFPAF [Y23A] | 2.93
21 | GPHPKSKIENGYPLHAPEAYFPRF [Y23R] | 2.97
22 | GPHPKSKIENGYPLHAPEAYFPIF [Y23I] | 2.4
23 | GPHPKSKIENGYPLHAPEAYFPEF [Y23E] | 3.4
24 | GPHPKSKIENGYPLHAPEAYFPGF [Y23G] | 3.21
25 | GPHPKSKIENGYPLHAPEAYFPHF [Y23H] | 2.97
26 | GPHPKSKIENGYPLHAPEAYFPTF [Y23T] | 3
27 | GPHPKSKIENGYPLHAPEAYFPMF [Y23M] | 2.32
28 | GPHPKSKIENGYPLHAPEAYFPQF [Y23Q] | 3.24
29 | GPHPKSKIENGYPLHAPEAYFPKF [Y23K] | 3.13
30 | GPHPKSKIENGYPLHAPEAYFPNF [Y23N] | 3.28
31 | GPHPKSKIENGYPLHAPEAYFPSF [Y23S] | 3.11
32 | GPHPKSKIENGYPLHAPEAYFPWF [Y23W] | 1.91
33 | GPHPKSKIENGYPLHAPEAYFPCF [Y23C] | 2.77
34 | GPHPKSKIENGYPLHAPEAYFPLF [Y23L] | 1.95
35 | GPHPKSKIENGYPLHAPEAYFPFF [Y23F] | 2.23

Variants of: B2
Assay: as above
Conditions: c terminus: a fixed tail appended

Row | Variant | protein stability index
36 | LEVETLGPASRMDPESERALQAPH [P2E] | 3.99
37 | LWVETLGPASRMDPESERALQAPH [P2W] | 1.53
38 | LTVETLGPASRMDPESERALQAPH [P2T] | 4.36
39 | LHVETLGPASRMDPESERALQAPH [P2H] | 4.71
40 | LVVETLGPASRMDPESERALQAPH [P2V] | 3.33
41 | LCVETLGPASRMDPESERALQAPH [P2C] | 4.42
42 | LLVETLGPASRMDPESERALQAPH [P2L] | 3.37
43 | LNVETLGPASRMDPESERALQAPH [P2N] | 4.6
44 | LIVETLGPASRMDPESERALQAPH [P2I] | 3.21
45 | LYVETLGPASRMDPESERALQAPH [P2Y] | 3.13
46 | LSVETLGPASRMDPESERALQAPH [P2S] | 4.4
47 | LMVETLGPASRMDPESERALQAPH [P2M] | 3.04
48 | LQVETLGPASRMDPESERALQAPH [P2Q] | 4.47
49 | LAVETLGPASRMDPESERALQAPH [P2A] | 4.24
50 | LKVETLGPASRMDPESERALQAPH [P2K] | 3.95
51 | LRVETLGPASRMDPESERALQAPH [P2R] | 4.05
52 | LGVETLGPASRMDPESERALQAPH [P2G] | 4.98
53 | LFVETLGPASRMDPESERALQAPH [P2F] | 3.42
54 | LDVETLGPASRMDPESERALQAPH [P2D] | 5
55 | LPVCTLGPASRMDPESERALQAPH [E4C] | 4.99

Row | Variant | protein stability index
56 | LPVATLGPASRMDPESERALQAPH [E4A] | 5.07
57 | DPVETLGPASRMDPESERALQAPH [L1D] | 5.07
58 | YPVETLGPASRMDPESERALQAPH [L1Y] | 5.17
59 | IPVETLGPASRMDPESERALQAPH [L1I] | 4.42
60 | SPVETLGPASRMDPESERALQAPH [L1S] | 5.25
61 | WPVETLGPASRMDPESERALQAPH [L1W] | 5.13
62 | CPVETLGPASRMDPESERALQAPH [L1C] | 3.66
63 | KPVETLGPASRMDPESERALQAPH [L1K] | 5.15
64 | RPVETLGPASRMDPESERALQAPH [L1R] | 4.72
65 | NPVETLGPASRMDPESERALQAPH [L1N] | 5.38
66 | FPVETLGPASRMDPESERALQAPH [L1F] | 4.61
67 | APVETLGPASRMDPESERALQAPH [L1A] | 5.48
68 | QPVETLGPASRMDPESERALQAPH [L1Q] | 5.33
69 | EPVETLGPASRMDPESERALQAPH [L1E] | 4.68
70 | VPVETLGPASRMDPESERALQAPH [L1V] | 4.65
71 | TPVETLGPASRMDPESERALQAPH [L1T] | 4.64
72 | HPVETLGPASRMDPESERALQAPH [L1H] | 4.89
73 | MPVETLGPASRMDPESERALQAPH [L1M] | 4.43
74 | PPVETLGPASRMDPESERALQAPH [L1P] | 5.09
75 | GPVETLGPASRMDPESERALQAPH [L1G] | 5.38

Row | Variant | protein stability index
76 | LPYETLGPASRMDPESERALQAPH [V3Y] | 5.04
77 | LPLETLGPASRMDPESERALQAPH [V3L] | 4.63
78 | LPNETLGPASRMDPESERALQAPH [V3N] | 5.42
79 | LPSETLGPASRMDPESERALQAPH [V3S] | 4.83
80 | LPPETLGPASRMDPESERALQAPH [V3P] | 5.25
81 | LPDETLGPASRMDPESERALQAPH [V3D] | 5.5
82 | LPFETLGPASRMDPESERALQAPH [V3F] | 4.88
83 | LPMETLGPASRMDPESERALQAPH [V3M] | 4.74
84 | LPKETLGPASRMDPESERALQAPH [V3K] | 5.38
85 | LPRETLGPASRMDPESERALQAPH [V3R] | 4.27
86 | LPAETLGPASRMDPESERALQAPH [V3A] | 4.73
87 | LPQETLGPASRMDPESERALQAPH [V3Q] | 5.07
88 | LPEETLGPASRMDPESERALQAPH [V3E] | 5.36
89 | LPIETLGPASRMDPESERALQAPH [V3I] | 4.92
90 | LPCETLGPASRMDPESERALQAPH [V3C] | 4.61
91 | LPHETLGPASRMDPESERALQAPH [V3H] | 5.34
92 | LPGETLGPASRMDPESERALQAPH [V3G] | 4.78
93 | LPTETLGPASRMDPESERALQAPH [V3T] | 5.56
94 | LPWETLGPASRMDPESERALQAPH [V3W] | 4.55
